Results from paper PMC9860449.

Experiments:
[1] = target: FUS released from 6xHis-MBP-FUS by TEV protease (UniProt P35637)
[2] = target: FUS^WT released from GST-TEV-FUS by TEV protease (UniProt P35637)
[3] = target: FUS^WT released from GST-TEV-FUS by TEV protease (UniProt P35637); remark: listed apart in the source

| reduction of number and total area of preformed FUS:RNA droplets (1 μM FUS, 1 μM U40 RNA; 0.75 μM H1-H13, 2 h) [1] [%] | reduction of turbidity of preformed FUS fibrils after 80 min at the highest concentration of H1-H13 tested [2] [%] | FUS fibrillization left (normalised turbidity at 395 nm; 3 μM FUS, TEV protease) at the highest concentration of H1-H13 tested [3] [%] | reduction of number and total area of preformed FUS:RNA droplets (1 μM FUS, 1 μM U40 RNA; 0.75 μM Kapβ2, 2 h) [1] [%] | Substance |
| --- | --- | --- | --- | --- |
| 44 | 50 | 40 | – | Kapβ2 H1-H13 (residues 1–604) (from UniProt Q92973-2 1-604) (domain or fragment) |
| – | – | – | 100 | Karyopherin-β2 (Kapβ2), full-length, wild type (from UniProt Q92973-2 1-890) (natural protein) |
